Results reported in paper PMC3279587.

Legend:
Test in all cases: EMSA
GST-Arx 214-430 [1] = target: T1, GST-Arx 214-430 (Mus musculus, UniProt O35085 216-432)
His-Arx 214-430 [2] = target: T2, His-Arx 214-430 (Mus musculus, UniProt O35085 216-432)
Sumo-Arx (full-length) [3] = target: T3, Sumo-Arx (full-length) (Mus musculus, UniProt O35085 1-564)
GST-Arx 214-430 [4] = target: T1, GST-Arx 214-430; remark: listed apart in the source
GST-Arx 286-430 = GST-Arx 286-430 (Mus musculus, UniProt O35085 288-432)
His-Arx 214-430 [5] = target: T2, His-Arx 214-430; remark: listed apart in the source
Sumo-Arx (full-length) [6] = target: T3, Sumo-Arx (full-length); remark: listed apart in the source
GST-Arx 286-430 L343Q = GST-Arx 286-430 L343Q (Mus musculus, UniProt O35085 288-432, L345Q)
Sequence of GST-Arx 286-430 L343Q (O35085 288-432 L345Q): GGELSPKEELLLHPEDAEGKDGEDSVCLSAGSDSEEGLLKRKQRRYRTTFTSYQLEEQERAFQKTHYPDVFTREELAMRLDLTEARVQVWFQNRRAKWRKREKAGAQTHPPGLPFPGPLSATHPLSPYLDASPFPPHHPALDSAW

Sequence of GST-Arx 286-430 (O35085 288-432): as the sequence (O35085 288-432 L345Q) above, with Q58L counted along it
T2 sequence (O35085 216-432): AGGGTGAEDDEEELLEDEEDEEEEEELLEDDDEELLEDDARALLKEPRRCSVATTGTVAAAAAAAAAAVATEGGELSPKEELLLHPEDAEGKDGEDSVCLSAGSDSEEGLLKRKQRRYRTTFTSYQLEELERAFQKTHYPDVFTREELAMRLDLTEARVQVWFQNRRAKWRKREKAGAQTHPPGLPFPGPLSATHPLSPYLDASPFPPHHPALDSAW
T1 sequence (O35085 216-432): as above
T3 sequence (O35085 whole entry): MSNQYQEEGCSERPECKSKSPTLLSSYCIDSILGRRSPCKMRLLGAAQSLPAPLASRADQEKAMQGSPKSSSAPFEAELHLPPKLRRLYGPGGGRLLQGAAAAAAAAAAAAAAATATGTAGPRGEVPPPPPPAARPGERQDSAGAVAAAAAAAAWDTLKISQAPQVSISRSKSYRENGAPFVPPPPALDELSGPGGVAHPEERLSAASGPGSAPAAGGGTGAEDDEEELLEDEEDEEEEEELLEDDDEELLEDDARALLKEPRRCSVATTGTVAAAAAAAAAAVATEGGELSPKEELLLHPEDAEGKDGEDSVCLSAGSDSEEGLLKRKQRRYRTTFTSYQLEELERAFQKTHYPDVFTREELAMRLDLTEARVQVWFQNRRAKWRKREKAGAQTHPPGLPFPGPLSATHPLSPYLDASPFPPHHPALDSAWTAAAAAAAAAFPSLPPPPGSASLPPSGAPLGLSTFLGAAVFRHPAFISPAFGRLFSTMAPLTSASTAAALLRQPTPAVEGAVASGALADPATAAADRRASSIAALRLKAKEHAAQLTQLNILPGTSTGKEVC

B1: N2 (dsDNA)
DNA 1: GTCTGGCAATTAATATATTGCATTTGC
DNA 2: GCAAATGCAATATATTAATTGCCAGAC
What does the source list for B1?
binding result (GST-Arx 214-430 [1]): no binding; binding result (His-Arx 214-430 [2]): no binding; binding result (Sumo-Arx (full-length) [3]): no binding

B2: N30 (dsDNA)
DNA 1: GTCTGGCCTCTAATTACGCCTAATTGC
DNA 2: GCAATTAGGCGTAATTAGAGGCCAGAC
Which results are given for B2?
binding signal (GST-Arx 214-430 [4]): 86 % of strongest probe for this protein; binding signal (GST-Arx 286-430): 100 % of strongest probe for this protein; binding signal (His-Arx 214-430 [5]): 100 % of strongest probe for this protein; binding signal (Sumo-Arx (full-length) [6]): 38 % of strongest probe for this protein

B3: Lmo1 (dsDNA)
DNA 1: GTAATGAATTGATTTAATTAACAGGGGAGTCTGA
DNA 2: TCAGACTCCCCTGTTAATTAAATCAATTCATTAC
Does B3 bind (GST-Arx 286-430 L343Q)?
Result: no binding

B4: N11 (dsDNA)
DNA 1: GTCTGGCAGTTAATTCGGCTTAGTAGC
DNA 2: GCTACTAAGCCGAATTAACTGCCAGAC
Which binding signal (Sumo-Arx (full-length) [6]) does the source give for B4 here?
Its binding signal is 100 % of strongest probe for this protein.

Does B4 bind (GST-Arx 214-430 [1])?
Result: no binding

Does B4 bind (His-Arx 214-430 [2])?
Result: no binding

B5: N25 (dsDNA)
DNA 1: GTCTGGCCATTAATGATATCAATTAGC
DNA 2: GCTAATTGATATCATTAATGGCCAGAC
Which results are given for B5?
binding signal (GST-Arx 214-430 [4]): 33.6 % of strongest probe for this protein; binding signal (GST-Arx 286-430): 81.6 % of strongest probe for this protein; binding signal (His-Arx 214-430 [5]): 46 % of strongest probe for this protein; binding result (Sumo-Arx (full-length) [3]): no binding

B6: N9 (dsDNA)
DNA 1: GTCTGGCTCCTAATTAGTTCGATTAGC
DNA 2: GCTAATCGAACTAATTAGGAGCCAGAC
Which results are given for B6?
binding signal (GST-Arx 214-430 [4]): 100 % of strongest probe for this protein; binding signal (GST-Arx 286-430): 95 % of strongest probe for this protein; binding signal (His-Arx 214-430 [5]): 97 % of strongest probe for this protein; binding signal (Sumo-Arx (full-length) [6]): 17 % of strongest probe for this protein
